The data set can be described thus: yeast display, Sf9 membrane polyspecificity reagent, FACS + sequencing; frameworks hold sequencing errors. In outline:
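In a synthetic yeast display library (Saccharomyces cerevisiae BJ5465), nanobody expression was induced with galactose for 36–48 hours. FACS gates were set low and high (top ~1%) using anti-HA fluorescence for expression and streptavidin fluorescence for binding of the Sf9 membrane reagent. Each polyreactivity label is drawn from the gate of origin.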
For “QVQLVESGGGLVQAGGSLRLSCAASGSTFGGYAMGWYRQAPGKERELVAAISGSGVRTYYADSEKGRFTISRDNAKNTVYLQMNSLQPEDTAVYYCAKRVRYPGDRYYYWGQGTQVTVSS”, the “polyreactivity (PSR sort gate)” value is reported as “high polyreactivity”.

Regarding “QVQLVESGGGLVQAGGSIRLSCDHSGRNLYRNSMGWYRQAPEKERELVARITSSGASTYYADSVKGRFTISRDNAKNTVTIQMNSLKQEYTAVYYCAAQYLSRRYGPYYTYNYRGQGTQVTVSS”, the “polyreactivity (PSR sort gate)” value is listed as “high polyreactivity”.

For “QVQLVESGGGLVQAGGSLRLSCAASGSTFTWYTMGWYRQAPGKERELVAAISSSGGSTYYADSVKGRFTISRDNAKNTVYLQMNSLKPEDTAVYYCARRFPSPLYTRYDYWGQGTQVTVSS”, the “polyreactivity (PSR sort gate)” value is recorded as “high polyreactivity”. In the case of “QVQLVESRGGLVQAGGSLRLSCAASGSIFSYYPMGWYRQAPGKERELVAAISSRGGSTYYADSVKGRFTISRDNAKNTFYLQMNCLKPEDTAVYYCDDEWTSWFGVTYDYWGQGTQVTVSS”, the “polyreactivity (PSR sort gate)” value was “high polyreactivity”. In the case of “QVQLVESGGCLVQAGGSLRLSCAASGRIFAWYAMGWYRQAPGKERELVAAISDSGGSTYYADSVKGRFTISRDNAKNTVYLQMNSLKQEDTAVYYCAADQVVYSAYWSDHYDYWGQGTQVTVSS” it was “low polyreactivity”; in that of “QVQLVESGGGLVQAGGSLRLSCAASGRTFEHYAMGWYRQAPGKERELVAAINSSDGGTYYADSVKGRFTISRDNAKNTVYLQMNSLKPEDTAVYYCAAAEFGSVPGYEMDYWGQGTQVTVSS”, “low polyreactivity”.

As to “QVQLVESGGGLVQAGGSLRLSCAASGRTFRYYAMGWYRQAPGKERELVAAITWSVGSTYYADSVKGRFTISRDNAKNTVYLQMNSRKPEDTAVYYCAADRVRGGYRTYYWVVHFDYWGQGTQVTVSS”, the “polyreactivity (PSR sort gate)” value was “high polyreactivity”. With “QVQLVESGGGLVQAGGSLRLSCAASGSIFLRNAMGWYRQAPGKERELVASITWNGASTSYADSVKGRFTISRDNAKNTVYLQMNSLKPEDTAVYYCAAVTVQDSNLKYGYWGQGTQLTVSS”, the “polyreactivity (PSR sort gate)” value is given as “low polyreactivity”. In the case of “QVQIVESGGGLVQAGGSLRLSCAASGRIFVVIAMGWYRQAPGKERELVATITRGASTYADSVKGRFTISRDNAKNTVYLQMNSLKPEDTAVYYCAAAKRPQVVRYDWTKLEYWGQGTQVTVSS” it was “high polyreactivity”.

For “QDQHVESGGGLVQAGGSLRLSCAASGGIFQSYTMGRYRQAPGKEREFVAAITYSGGSTHYADSVKGRFTISRDKAKNTVYLQMNSLKPEDTAVYYCNADRYYGRGYGYWGQGTQVTVSS”, the “polyreactivity (PSR sort gate)” value is recorded as “low polyreactivity”. In the case of “QVQLVESGGGLVQAGGSLRLSCAASGSTFDDYTMGWYRQAPGKERELLAAISSDSSTNYADSVKGRFTISRDNAKNTVYLQMNSLKPEDTAVYYCATRSRTTKIVRWPGMYYWGQGTQVTVSS” it was “high polyreactivity”; in that of “QVQQQESGGGLVQAGGSLRLSCAASGTIFQLTVMGRYRQASGKERELVASIDYGGNTNYADSVKGRFTISRDNAKNTVYLQMNSLKPEDTAVYYCEASSDSWTTHPYWGQGTQVTVSS”, “low polyreactivity”; in that of “QVQLVESGGGLVQAGGSLRLSCAPSGGTFWIYAMGWYRQAPGKERELVAGITTSGATTYYADSVKGRFTISRDNAKNTVYLQMNSLKPEDTAVYYCAAVIRPRYYQVRPRYDYWGQGTQVTVSS”, “low polyreactivity”. In the case of “QVQLVESGGVLVQEGGSLRLSCAASVSIFSRNAMGSYRQAPGKERELVAAISYSGGSTYYADSVKGRLTISRDNAKNTVYLQMNSLKPEDTEVYYCAAYGHHFQGDYNYWGQGTQVTVSS” it was “low polyreactivity”; in that of “QVQLVESGGGLVQAGGSLRLSCAASGRTLSGNAMGWYRPAPGKERELVATITSDGGDTYYADSVKGRFTISRDNPKNTVYLQMNILKPEDTAVYYCNADYAGPKYVGYTFRSFTMDYWGQGTQVTVSS”, “low polyreactivity”; in that of “QVQLVETGGGLVQAGGSLRISCAASGLILDGYALGWYRQAPGKERELVAAITRSGGRTYYADSVKWRFTISRDNAKNTVYLQMNRLKPEDTAVYDCAALGWSGRYRYDYWGQGTLVTVSS”, “high polyreactivity”. Take “QVQLVESGGCLVQAGGSLRLSCAASGRTFYIYAMGWYRQAPGKERELVAAINFSDGSTSYADSVKGRFTISRDNAKHTVYLQMNSLKPEDTAVYYWGQGTKVTVSS”: the “polyreactivity (PSR sort gate)” value was “low polyreactivity”. In the case of “QVQLVESVGGLVQAGGSLRLSCASSGFIFATNTMGCYRQAPGKERALVAAMSRSGGSTYYADSVKGRFTISRDNAKNTVYLQMNSLKPEDTAVYYCAADVRLRSTRARFDYWGQGTQVTVSS” it was “high polyreactivity”; in that of “QVQLVESGGGLVQAGGSLRLSCAASGSIIKRNDMGWYRQAPGKERELVASITWRGGRTYYADSVKGRFTISRDNAKNTVYLQMNSLTPEDTSVYYCATTQYPSHYDAYGYWGQGTQVTVSS”, “high polyreactivity”.

As to “QVQLVESGGGLVQAGGSLRLSCAASGRTFAYYAMGWYKQAPGKERELVAAISWSGGSTYYADSVKGRFTISRDNAKNTVYLQMNSLKPEDTAVYYCAARRYGVPPTYDYWGQGTQVTVSW”, the “polyreactivity (PSR sort gate)” value is on record as “high polyreactivity”.

With “QVQLVESSGGLVQAGGSLSLICAASVLIFNFYSMGWYRQAPGKERELVDAISWNAGSTYYADSVKGRFTISRDNAKNTVYLQMNSLKPEDTAVYYCAVLPGRYDKTASHYDYWGQGTQVTVSS”, the “polyreactivity (PSR sort gate)” value is reported as “low polyreactivity”. On to “QVQLVESGGGLVQAGGSLRLSCAASGRIFGPYTMGWYRQAPGKERELVAAIRSSGTSTYYADSVKGRFTISRDNAKNTVYLQMNSLKPEDTAVYYCNRARSSSRYDYWGQGTQVTVSS”, for which the “polyreactivity (PSR sort gate)” value is reported as “low polyreactivity”. Consider “QVQLVESGGGLVQAGGSLRLSCAASGGTFPYYAMGWYRQAPGKERELVADISGTDGSTYYADSVKGRFTISRDNAKTTVYLQMNSLKPEDTAVYYCNADPHWWYWDYDYWGQGTQVTVSS”, for which the “polyreactivity (PSR sort gate)” value is reported as “high polyreactivity”.

Take “QVQLVESGGGLVQAGGSLRLSCAASGFTIRRYAMGWYRQAPGKERELVAAITTGGSTYYADSVKGRFTISRDNAKNTVYLQMNSLKPEDTAVYYCAALYPYKQYRLGYDSWGQGTQVTVSS”: the “polyreactivity (PSR sort gate)” value is “high polyreactivity”. In the case of “QVQLVESGGGLVQAGGSLRLSCAASGRIFPGYAMGWYRQAPGKQRELVAGISNDASTNYADSVKGRFTISRDNAKNTVYLQMNSLKPEDTAVFYCAAEISYLSVPRYDYWGQGTQVTVSS” it was “low polyreactivity”; in that of “QFQLVESGGGLVQAGGSLRLSCAASGFTFPYNGMGWYRQAPGKERELVAAISYGGGGKYYADSVKGRFTISRDNAKNTVYLQMNSLKPEDTAVYYCATDDPLSQINEQGMDYWGQGTQVTVSS”, “low polyreactivity”. In the case of “QVQLVESGGGLVQAGGSLRLSCAASGSIFLLYAMGWYRQAPGKERELVARISWSGDNTRYADSVKGRFTISRDNEKNTVYLQMNSLKPEDTAFYYCNAVTFSWDYGYWGQGSQVTVSS” it was “low polyreactivity”; in that of “QVHLVESGGGLVQAGGSLRLSCAASGSTFEQYAMGWYIQAPGKERELVAAISGSGTRTYYADSVKGRFTISRDNAKNTVYLQMNSLKPEDTAVYSCRTGSGEYDYWGQGTQVTVSS”, “high polyreactivity”. Regarding “QVQLVESGGGLVQAGGSLRLSCAASGSTFIIYAMGWSRQAPGKERELVAAITRDGSTYADSVKRRFTISRDNAKNTVYLQMNRLKPEDTAVYYCAATSRQGYDYWGQGTEVTVSS”, the “polyreactivity (PSR sort gate)” value is on record as “high polyreactivity”. For “QVQLVESVGGLFQAGGSIRLSCAASGRTFFVYAMGWYRQAPGKERVLVAVISFTVDSTFYEDSVKGRFTISRDNAKNTVYLQMNSLKPEDTAVYYCAADVRRVFSKYSYYLYFDLDYWGQGTQVTVSS” the value was “low polyreactivity”.

Source of the values: the nanobody polyreactivity screen of Harvey et al. (2022).
